Bridges are numbered along the chain shown (N, C = ends). Roman numbers before positions name the chains, in order. Where no end group is shown, it is not given here.
Test: Adsorption of surfactant compositions to the air-water interface (surface pressure vs time, Wilhelmy method)
Format: physicochemical
Conditions: for adsorption compared with lung surfactant (CLSE in Table 7): 3% by weight peptide with 5:3:2 (molar ratio) DPPC:POPC:POPG; for adsorption, result in words: peptide 3% by weight with synthetic ester linked phospholipids 5:3:2 DPPC:POPC:POPG
Procedure: Surface activity of synthetic peptide/lipid surfactant compositions was assessed by either or both of the following methods: (1) measurement of the adsorption of surfactant compositions to the air-water interface as a function of time, and (2) measurement of overall dynamic surface activity on a pulsating bubble surfactometer (general methodological details of these two experimental techniques are described by Notter, Lung Surfactants: Basic Science and Clinical Applications, Marcel Dekker, Inc, New York (2000), which is hereby incorporated by reference in its entirety).
In adsorption studies, a given surfactant mixture was injected at time zero beneath the surface of a stirred surfactant-free subphase, and surface pressure (defined as surface tension lowering below that of the pure subphase) was measured as a function of time from the force on a hanging platinum slide (“Wilhelmy” method). By definition, higher surface pressure corresponds to lower surface tension (Notter, Lung Surfactants: Basic Science and Clinical Applications, Marcel Dekker, Inc, New York (2000)).

Substance | adsorption compared with lung surfactant (CLSE in Table 7) | adsorption, result in words
LGIPFFPSSLKRLLIIVVV-CONH2 (LGIPFFPSSLKRLLIIVVV-NH2) [Mini-SPCff_dog] | equaling that of lung surfactant | 
GIPFFPVHLKRLLIKVVVEELIVKVIVGALLMGL (SP-C FF Ion Lock2 K15/E19;E20/K24) [SP-C ion-lock2ff] |  | substantial rapid adsorption
LGIPCFPSSLKRLLIIVVV-CONH2 (chain 1 LGIPCFPSSLKRLLIIVVV-NH2; chain 2 LGIPCFPSSLKRLLIIVVV-NH2; disulfide I:5-II:5 (inferred)) [Mini-C dog cf_cys5 dimer] | equaling that of lung surfactant | 
LGIPFFPSSLKRLLIILLL-CONH2 (LGIPFFPSSLKRLLIILLL-NH2) [Mini-SPCff_dog_leu] | equaling that of lung surfactant | 
IPSSPVHLKRLKLLKLLLEEILLKILGALLMGL (SP-C33SS Ion Lock2 K15/E19;E20/K24) [SP-C33ss_ion2] |  | substantial rapid adsorption
FGIPFFPVHLKRLLILLLL-CONH2 (FGIPFFPVHLKRLLILLLL-NH2) [Mini-SPCff_2_leu] | equaling that of lung surfactant | 

— patent US20150125515A1, “NOVEL SP-B & SP-C PEPTIDES, SYNTHETIC LUNG SURFACTANTS, AND USE THEREOF” (UNIVERSITY OF ROCHESTER, priority 2012, published 2015)
